Reference: the supplement of paper PMC11875167

test: observed amide hydrogen exchange rate constant kobs (stretched exponential fit, FD-normalized) (s^-1); higher = faster H/D exchange (less protection); conditions: pH 3 (pH read); temperature: 20 °C; D2O: 88%
How it was run: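 Exchange was started by placing Jurkat tryptic peptides in 88% D2O at pHread 3 and 20 °C, and was stopped with 0.23% formic acid at 13 times from 18 to 93,600 s. HDExaminer processed MS1 uptake from a Q-Exactive HF with no back-exchange correction, normalizing it to full-deuteration controls prepared for 24 h at 37 °C. The fit used a stretched single exponential with β = 0.8. The observed exchange rate constant kobs is defined as the rate from this fit.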

| Substance | observed amide hydrogen exchange rate constant kobs |
| --- | --- |
| GYDVIAQAQSGTGK | 0.00126 |
| FFEVILIDPFHK | 0.000722 |
| TLGILGLGR | 0.00116 |
| IFGVTTLDIVR | 0.000765 |
| DQQEAALVDMVNDGVEDLR | 0.00161 |
| QVVESAYEVIK | 0.000781 |
| EAFSLFDK | 0.0018 |
| IGFPWSEIR | 0.000936 |
| LFIGGLNTETNEK | 0.00144 |
| SIYYITGESK | 0.00108 |
| LHFFMPGFAPLTSR | 0.00112 |
| SQIHDIVLVGGSTR | 0.00136 |
| GLFIIDDK | 0.00107 |
| VAASNIVQMK | 0.000933 |
| EISLWFKPEELVDYK | 0.000892 |
| DLSHIGDAVVISCAK | 0.00192 |
| TVALWDLR | 0.000702 |
| EVLAGR | 0.00244 |
| LDIDSPPITAR | 0.00107 |
| EALQDVEDENQ | 0.0022 |
| GALQNIIPASTGAAK | 0.000988 |
| PLRLPLQDVYK | 0.000685 |
| IQLINNMLDK | 0.00081 |

| Substance | observed amide hydrogen exchange rate constant kobs |
| --- | --- |
| LNLVQR | 0.000854 |
| IGLFGGAGVGK | 0.000762 |
| EESGKPGAHVTVK | 0.00233 |
| TLVDIAK | 0.000674 |
| SDALETLGFLNHYQMK | 0.00133 |
| LLIHQSLAGGIIGVK | 0.000892 |
| PFEVPFLK | 0.000569 |
| LIAPVAEEEATVPNNK | 0.00102 |
| EDLHDMLASLGK | 0.00199 |
| FLVYVANFDEK | 0.000821 |
| NDLAVVDVR | 0.000939 |
| SAEFLLHMLK | 0.00118 |
| APEPHVEEDDDDELDSK | 0.0038 |
| PFLNGLTGKPVMVK | 0.000606 |
| VYALPEDLVEVNPK | 0.0011 |
| VLATVTKPVGGDK | 0.000932 |
| VSHLLGINVTDFTR | 0.00119 |
| APIIAVTR | 0.000401 |
| DRPFFPGLVK | 0.000625 |
| EILVGDVGQTVDDPYATFVK | 0.00102 |
| VVLIGGKPDR | 0.00162 |
| QITVNDLPVGR | 0.000932 |
| YAVLYQPLFDK | 0.000677 |

| Substance | observed amide hydrogen exchange rate constant kobs |
| --- | --- |
| PAAPPAPGPGQLTLR | 0.000936 |
| QDFVQHFSQIVR | 0.00117 |
| LVPVGYGIK | 0.000648 |
| LGDVYVNDAFGTAHR | 0.00197 |
| GNPTVEVDLFTSK | 0.000833 |
| AVTEQGHELSNEER | 0.00324 |
| VLDFEHFLPMLQTVAK | 0.000855 |
| ETIEQEK | 0.00152 |
| FDLMYAK | 0.000933 |
| AGNLGGGVVTIER | 0.000802 |
| SLTNDWEDHLAVK | 0.00185 |
| ALELTGLK | 0.00115 |
| AEDNADTLALVFEAPNQEK | 0.00102 |
| EDAANNYAR | 0.0026 |
| VLQATVVAVGSGSK | 0.000618 |
| YYVTIIDAPGHR | 0.00127 |
| TLSDYNIQK | 0.00134 |
| RHLTGEFEK | 0.00392 |
| ILATPPQEDAPSVDIANIR | 0.00103 |
| IGAEVYHNLK | 0.0019 |
| GPDGLTAFEATDNQAIK | 0.00114 |
| ALAAFLK | 0.000792 |
| GLVGEIIK | 0.000569 |

| Substance | observed amide hydrogen exchange rate constant kobs |
| --- | --- |
| AVLVDLEPGTMDSVR | 0.00126 |
| NLDIERPTYTNLNR | 0.00136 |
| AMADPEVQQIMSDPAMR | 0.00104 |
| LAMQEFMILPVGAANFR | 0.000775 |
| NPLPSK | 0.000929 |
| IEVIEIMTDR | 0.00104 |
| SFFTDDDK | 0.0032 |
| GYSFTTTAER | 0.00184 |
| GFGFILFK | 0.000667 |
| AGLQFPVGR | 0.00107 |
| AVELAANTK | 0.00114 |
| LMDVGLIAIR | 0.000707 |
| YAISMAR | 0.00127 |
| GFSTWLK | 0.000875 |
| HLEINPDHPIVETLR | 0.00133 |
| ALWFQGR | 0.00126 |
| FVADGIFK | 0.00103 |
| DYFLFR | 0.00105 |
| VPSLVGSFIR | 0.000779 |
| VALVYGQMNEPPGAR | 0.00112 |
| LVPGGGATEIELAK | 0.00089 |
| MVNHFIAEFK | 0.00114 |
| IETIEVMEDR | 0.00148 |

| Substance | observed amide hydrogen exchange rate constant kobs |
| --- | --- |
| HSQFIGYPITLYLEK | 0.000606 |
| GNSIIMLEALERV | 0.00109 |
| EVTPEGLQMVK | 0.000799 |
| FNVWDTAGQEK | 0.00146 |
| IYVLLR | 0.000454 |
| LLLPGELAK | 0.000859 |
| RNTTIPTK | 0.00112 |
| QHYIDLK | 0.00137 |
| IFVGGLNPEATEEK | 0.00108 |
| MFVGGLSWDTSK | 0.00136 |
| ELGIWEPLAVK | 0.000742 |
| TIGGGDDSFNTFFSETGAGK | 0.00246 |
| LVQGSILK | 0.000721 |
| RGILTLK | 0.000691 |
| LAYINPDLALEEK | 0.00137 |
| SLADELALVDVLEDK | 0.00105 |
| TFVNITPAEVGVLVGK | 0.000609 |
| LNGTDPEDVIR | 0.00197 |
| GSYGDLGGPIITTQVTIPK | 0.000771 |
| TITLEVEPSDTIENVK | 0.001 |
| GIAYIEFK | 0.00091 |
| DEFEGLFK | 0.00163 |
| YHTINGHNAEVR | 0.00291 |

| Substance | observed amide hydrogen exchange rate constant kobs |
| --- | --- |
| GGGQIIPTAR | 0.000898 |
| TSRPENAIIYNNNEDFQVGQAK | 0.00112 |
| LTLHGLQQYYVK | 0.000933 |
| IDFYFDENPYFENK | 0.00186 |
| GHYTEGAELVDSVLDVVRK | 0.00131 |
| ASILNTWISLK | 0.000492 |
| SSFYVNGLTLGGQK | 0.00091 |
| LVIEEAER | 0.00116 |
| DVIEEYFK | 0.00131 |
| PMPNPNPNHPSSSGSFSDADLADGVSGGEGK | 0.00261 |
| MVVESAYEVIK | 0.000759 |
| EVFEDAAEIR | 0.002 |
| IISSIEQK | 0.00126 |
| VLITTDLLAR | 0.000753 |
| VTLTSEEEAR | 0.00196 |
| FLILPDMLK | 0.000536 |
| IDTIEIITDR | 0.000965 |
| VSFELFADK | 0.00165 |
| QTVAVGVIK | 0.000426 |
| ISVYYNEATGGK | 0.00138 |
| EDSVKPGAHLTVK | 0.00181 |
| RGLEVNK | 0.00164 |
| DSPSVWAAVPGK | 0.000933 |

| Substance | observed amide hydrogen exchange rate constant kobs |
| --- | --- |
| EGIPPDQQR | 0.00171 |
| TLHPDLGTDK | 0.00356 |
| ESKDPADETEAD | 0.00321 |
| LMGLEALK | 0.000548 |
| TLAQLNPESSLFIIASK | 0.00061 |
| NQVAMNPTNTVFDAK | 0.000774 |
| HWPFMVVNDAGRPK | 0.00131 |
| AIIIFVPVPQLK | 0.000266 |
| VAVATPAK | 0.000839 |
| LTGMAFR | 0.00159 |
| GTGIVSAPVPK | 0.00104 |
| IACLDFSLQK | 0.000643 |
| GLTSVINQK | 0.000815 |
| ILDSVGIEADDDRLNK | 0.0024 |
| SIYGEK | 0.00146 |
| ESTGAQVQVAGDMLPNSTER | 0.00119 |
| EAILDIITSR | 0.0013 |
| MINTDLSR | 0.000886 |
| MLVSGAGDIK | 0.00135 |
| AAQEEYVK | 0.00112 |
| FYEAFSK | 0.00122 |
| FGYVDFESAEDLEK | 0.00214 |
| FSELTAEK | 0.00148 |
